In article PMC10732536:

Target: Spz, activated cystine-knot domain (Drosophila melanogaster)
Assay: non-reducing SDS-PAGE and immunoblot; proSpz cleaved by the activated proteases, in the absence of DTT (fig. S10); anti-Spz C106 antibody

Spz, activated cystine-knot domain (domain or fragment)
stoichiometry N: 2
